Measured values: patent US20110229560

T1: NLRC5-D1, containing the CARD and NOD domains (aa 1-517)
T1 chain: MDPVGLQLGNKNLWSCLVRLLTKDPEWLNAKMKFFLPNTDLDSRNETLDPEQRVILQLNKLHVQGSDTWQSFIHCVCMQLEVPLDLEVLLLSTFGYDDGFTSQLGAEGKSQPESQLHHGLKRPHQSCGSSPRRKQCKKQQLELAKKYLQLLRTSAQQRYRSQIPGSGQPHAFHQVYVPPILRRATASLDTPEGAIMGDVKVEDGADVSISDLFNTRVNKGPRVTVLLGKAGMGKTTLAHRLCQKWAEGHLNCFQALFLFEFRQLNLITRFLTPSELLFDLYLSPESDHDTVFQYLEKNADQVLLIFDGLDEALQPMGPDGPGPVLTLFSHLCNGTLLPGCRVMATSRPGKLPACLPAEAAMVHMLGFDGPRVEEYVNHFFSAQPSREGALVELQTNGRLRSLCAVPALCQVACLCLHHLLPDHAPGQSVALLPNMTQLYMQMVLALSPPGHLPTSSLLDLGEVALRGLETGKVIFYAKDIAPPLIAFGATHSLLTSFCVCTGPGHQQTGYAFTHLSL

T2: NLRC5-D2, containing the LRR-R1 (aa 651-898)
T2 chain: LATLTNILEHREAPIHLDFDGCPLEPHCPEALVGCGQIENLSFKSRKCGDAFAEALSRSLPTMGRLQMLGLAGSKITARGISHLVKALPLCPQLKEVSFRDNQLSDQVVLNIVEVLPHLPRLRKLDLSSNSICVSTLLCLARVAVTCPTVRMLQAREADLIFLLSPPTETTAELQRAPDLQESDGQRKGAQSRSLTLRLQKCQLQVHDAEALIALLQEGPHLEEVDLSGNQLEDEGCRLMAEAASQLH

T3: NLRC5-D3, containing the link region and LRR-R2 (aa 900-1329)
T3 chain: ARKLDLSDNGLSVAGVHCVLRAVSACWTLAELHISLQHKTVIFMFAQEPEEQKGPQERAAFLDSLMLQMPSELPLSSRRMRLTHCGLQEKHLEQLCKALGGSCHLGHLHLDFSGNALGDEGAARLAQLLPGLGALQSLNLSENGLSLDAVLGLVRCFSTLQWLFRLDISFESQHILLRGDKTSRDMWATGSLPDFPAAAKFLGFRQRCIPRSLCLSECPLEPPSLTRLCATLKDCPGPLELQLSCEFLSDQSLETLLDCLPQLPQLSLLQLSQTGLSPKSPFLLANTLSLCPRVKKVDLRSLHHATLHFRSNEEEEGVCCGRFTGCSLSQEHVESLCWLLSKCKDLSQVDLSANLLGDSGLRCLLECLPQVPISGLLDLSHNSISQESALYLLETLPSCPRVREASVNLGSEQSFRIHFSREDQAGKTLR

T4: NLRC5-D4, containing the CARD domain and LRR-R3 (aa 1-215 plus 1471-1866)
T4 chain: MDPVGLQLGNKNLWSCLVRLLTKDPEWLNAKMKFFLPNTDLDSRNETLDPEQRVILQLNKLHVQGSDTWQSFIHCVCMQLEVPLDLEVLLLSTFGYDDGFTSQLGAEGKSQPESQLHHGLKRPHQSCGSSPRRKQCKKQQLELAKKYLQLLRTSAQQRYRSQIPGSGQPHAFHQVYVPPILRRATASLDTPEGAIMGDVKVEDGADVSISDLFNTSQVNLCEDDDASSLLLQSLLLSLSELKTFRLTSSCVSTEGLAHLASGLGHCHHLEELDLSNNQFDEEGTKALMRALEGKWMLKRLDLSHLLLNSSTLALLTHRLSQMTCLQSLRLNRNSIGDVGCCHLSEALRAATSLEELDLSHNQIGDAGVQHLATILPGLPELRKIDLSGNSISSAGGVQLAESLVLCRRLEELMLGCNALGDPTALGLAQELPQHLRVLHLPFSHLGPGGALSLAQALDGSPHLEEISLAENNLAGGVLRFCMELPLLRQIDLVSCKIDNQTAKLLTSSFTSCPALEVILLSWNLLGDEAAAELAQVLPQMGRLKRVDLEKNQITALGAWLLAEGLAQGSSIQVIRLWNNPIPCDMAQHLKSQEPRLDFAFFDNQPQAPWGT

B1: Flag-tagged IKKα (protein)
chain: MERPPGLRPGAGGPWEMRERLGTGGFGNVCLYQHRELDLKIAIKSCRLELSTKNRERWCHEIQIMKKLNHANVVKACDVPEELNILIHDVPLLAMEYCSGGDLRKLLNKPENCCGLKESQILSLLSDIGSGIRYLHENKIIHRDLKPENIVLQDVGGKIIHKIIDLGYAKDVDQGSLCTSFVGTLQYLAPELFENKPYTATVDYWSFGTMVFECIAGYRPFLHHLQPFTWHEKIKKKDPKCIFACEEMSGEVRFSSHLPQPNSLCSLVVEPMENWLQLMLNWDPQQRGGPVDLTLKQPRCFVLMDHILNLKIVHILNMTSAKIISFLLPPDESLHSLQSRIERETGINTGSQELLSETGISLDPRKPASQCVLDGVRGCDSYMVYLFDKSKTVYEGPFASRSLSDCVNYIVQDSKIQLPIIQLRKVWAEAVHYVSGLKEDYSRLFQGQRAAMLSLLRYNANLTKMKNTLISASQQLKAKLEFFHKSIQLDLERYSEQMTYGISSEKMLKAWKEMEEKAIHYAEVGVIGYLEDQIMSLHAEIMELQKSPYGRRQGDLMESLEQRAIDLYKQLKHRPSDHSYSDSTEMVKIIVHTVQSQDRVLKELFGHLSKLLGCKQKIIDLLPKVEVALSNIKEADNTVMFMQGKRQKEIWHLLKIACTQSSARSLVGSSLEGAVTPQTSAWLPPTSAEHDHSLSCVVTPQDGETSAQMIEENLNCLGHLSTIIHEANEEQGNSMMNLDWSWLTE
B2: Flag-tagged IKKβ (full length) (protein)
chain: MSWSPSLTTQTCGAWEMKERLGTGGFGNVIRWHNQETGEQIAIKQCRQELSPRNRERWCLEIQIMRRLTHPNVVAARDVPEGMQNLAPNDLPLLAMEYCQGGDLRKYLNQFENCCGLREGAILTLLSDIASALRYLHENRIIHRDLKPENIVLQQGEQRLIHKIIDLGYAKELDQGSLCTSFVGTLQYLAPELLEQQKYTVTVDYWSFGTLAFECITGFRPFLPNWQPVQWHSKVRQKSEVDIVVSEDLNGTVKFSSSLPYPNNLNSVLAERLEKWLQLMLMWHPRQRGTDPTYGPNGCFKALDDILNLKLVHILNMVTGTIHTYPVTEDESLQSLKARIQQDTGIPEEDQELLQEAGLALIPDKPATQCISDGKLNEGHTLDMDLVFLFDNSKITYETQISPRPQPESVSCILQEPKRNLAFFQLRKVWGQVWHSIQTLKEDCNRLQQGQRAAMMNLLRNNSCLSKMKNSMASMSQQLKAKLDFFKTSIQIDLEKYSEQTEFGITSDKLLLAWREMEQAVELCGRENEVKLLVERMMALQTDIVDLQRSPMGRKQGGTLDDLEEQARELYRRLREKPRDQRTEGDSQEMVRLLLQAIQSFEKKVRVIYTQLSKTVVCKQKALELLPKVEEVVSLMNEDEKTVVRLQEKRQKELWNLLKIACSKVRGPVSGSPDSMNASRLSQPGQLMSQPSTASNSLPEPAKKSEELVAEAHNLCTLLENAIQDTVREQDQSFTALDWSWLQTEEEEHSCLEQAS

What was measured:
[1] = biological target: T1, NLRC5-D1, containing the CARD and NOD …
[2] = biological target: T2, NLRC5-D2, containing the LRR-R1 (aa …)
[3] = biological target: T3, NLRC5-D3, containing the link region …
[4] = biological target: T4, NLRC5-D4, containing the CARD domain …

Protein | phosphorylation of IKKα [1] | phosphorylation of IKKα [2] | phosphorylation of IKKα [3] | phosphorylation of IKKα [4] | phosphorylation of IKKβ [1] | phosphorylation of IKKβ [2] | phosphorylation of IKKβ [3] | phosphorylation of IKKβ [4]
B1 | NLRC5-D1, -D2 and -D4 produced little or only slight inhibition | NLRC5-D1, -D2 and -D4 produced little or only slight inhibition | NLRC5-D3 strongly inhibited IKKα and IKKβ phosphorylation | NLRC5-D1, -D2 and -D4 produced little or only slight inhibition |  |  |  | 
B2 |  |  |  |  | NLRC5-D1, -D2 and -D4 produced little or only slight inhibition | NLRC5-D1, -D2 and -D4 produced little or only slight inhibition | NLRC5-D3 strongly inhibited IKKα and IKKβ phosphorylation | NLRC5-D1, -D2 and -D4 produced little or only slight inhibition
